Molecular target: T1, CD3 epsilon homodimer protein (UniProt P07766 23-126)
T1 construct: also called CD3 (CD3 epsilon)
Assay: SPR, CD3 epsilon homodimer on chip, one-arm antibody as analyte;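 also: surface plasmon resonance at 25 °C with CD3 epsilon homodimer amine-coupled to a CM4 sensor chip, antibody injected as analyte, HBS-EP+ as running buffer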

T1 sequence (P07766 23-126): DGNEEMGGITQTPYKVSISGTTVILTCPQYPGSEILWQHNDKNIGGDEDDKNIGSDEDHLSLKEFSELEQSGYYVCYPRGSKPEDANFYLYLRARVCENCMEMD

Binder | KD ratio (KD of CE115HA000/KD of altered form)
CE115HA000 D101L (antibody, human IgG1, kappa, L234A L235A, N297A, name in Kabat numbering, one-arm antibody) heavy: QVQLVESGGGVVQPGRSLRLSCAASGFTFSNAWMHWVRQAPGKGLEWVAQIKAKSNNYATYYAESVKGRFTISRDDSKNSLYLQMNSLKTEDTAVYYCRYVHYGAYYGVLAWGQGTTVTVSSASTKGPSVFPLAPSSKSTSGGTAALGCLVKDYFPEPVTVSWNSGALTSGVHTFPAVLQSSGLYSLSSVVTVPSSSLGTQTYICNVNHKPSNTKVDKKVEPKSCDKTHTCPPCPAPEAAGGPSVFLFPPKPKDTLMISRTPEVTCVVVDVSHEDPEVKFNWYVDGVEVHNAKTKPREEQYASTYRVVSVLTVLHQDWLNGKEYKCKVSNKALPAPIEKTISKAKGQPREPQVYTLPPSRCELTKNQVSLSCAVKGFYPSDIAVEWESNGQPENNYKTTPPVLDSDGSFFLVSKLTVDKSRWQQGNVFSCSVMHEALHNHYTQKSLSLSPDYKDDDDK EPKSSDKTHTCPPCPAPELLGGPSVFLFPPKPKDTLMISRTPEVTCVVVDVSHEDPEVKFNWYVDGVEVHNAKTKPREEQYNSTYRVVSVLTVLHQDWLNGKEYKCKVSNKALPAPIEKTISKAKGQPREPQVCTLPPSRDELTKNQVSLWCLVKGFYPSDIAVEWESNGQPENNYKTTPPVLDSDGSFFLYSKLTVDKSRWQQGNVFSCSVMHEALHNRYTQKSLSLSP light: DIVMTQSPLSLPVTPGEPASISCRSSQSLVHSNRNTYLHWYQQKPGQAPRLLIYKVSNRFSGVPDRFSGSGSGTDFTLKISRVEAEDVGVYYCGQGTQVPYTFGQGTKLEIKRTVAAPSVFIFPPSDEQLKSGTASVVCLLNNFYPREAKVQWKVDNALQSGNSQESVTEQDSKDSTYSLSSTLTLSKADYEKHKVYACEVTHQGLSSPVTKSFNRGEC | 0.71
CE115HA000 D101M (antibody, human IgG1, kappa, L234A L235A, N297A, name in Kabat numbering, one-arm antibody) heavy: QVQLVESGGGVVQPGRSLRLSCAASGFTFSNAWMHWVRQAPGKGLEWVAQIKAKSNNYATYYAESVKGRFTISRDDSKNSLYLQMNSLKTEDTAVYYCRYVHYGAYYGVMAWGQGTTVTVSSASTKGPSVFPLAPSSKSTSGGTAALGCLVKDYFPEPVTVSWNSGALTSGVHTFPAVLQSSGLYSLSSVVTVPSSSLGTQTYICNVNHKPSNTKVDKKVEPKSCDKTHTCPPCPAPEAAGGPSVFLFPPKPKDTLMISRTPEVTCVVVDVSHEDPEVKFNWYVDGVEVHNAKTKPREEQYASTYRVVSVLTVLHQDWLNGKEYKCKVSNKALPAPIEKTISKAKGQPREPQVYTLPPSRCELTKNQVSLSCAVKGFYPSDIAVEWESNGQPENNYKTTPPVLDSDGSFFLVSKLTVDKSRWQQGNVFSCSVMHEALHNHYTQKSLSLSPDYKDDDDK EPKSSDKTHTCPPCPAPELLGGPSVFLFPPKPKDTLMISRTPEVTCVVVDVSHEDPEVKFNWYVDGVEVHNAKTKPREEQYNSTYRVVSVLTVLHQDWLNGKEYKCKVSNKALPAPIEKTISKAKGQPREPQVCTLPPSRDELTKNQVSLWCLVKGFYPSDIAVEWESNGQPENNYKTTPPVLDSDGSFFLYSKLTVDKSRWQQGNVFSCSVMHEALHNRYTQKSLSLSP light: DIVMTQSPLSLPVTPGEPASISCRSSQSLVHSNRNTYLHWYQQKPGQAPRLLIYKVSNRFSGVPDRFSGSGSGTDFTLKISRVEAEDVGVYYCGQGTQVPYTFGQGTKLEIKRTVAAPSVFIFPPSDEQLKSGTASVVCLLNNFYPREAKVQWKVDNALQSGNSQESVTEQDSKDSTYSLSSTLTLSKADYEKHKVYACEVTHQGLSSPVTKSFNRGEC | 1.94

Further lines, results first:

KD ratio (KD of CE115HA000/KD of altered form) | Binder
3.55 | CE115HA000 D101Q (antibody, human IgG1, kappa, L234A L235A, N297A, name in Kabat numbering, one-arm antibody) heavy: QVQLVESGGGVVQPGRSLRLSCAASGFTFSNAWMHWVRQAPGKGLEWVAQIKAKSNNYATYYAESVKGRFTISRDDSKNSLYLQMNSLKTEDTAVYYCRYVHYGAYYGVQAWGQGTTVTVSSASTKGPSVFPLAPSSKSTSGGTAALGCLVKDYFPEPVTVSWNSGALTSGVHTFPAVLQSSGLYSLSSVVTVPSSSLGTQTYICNVNHKPSNTKVDKKVEPKSCDKTHTCPPCPAPEAAGGPSVFLFPPKPKDTLMISRTPEVTCVVVDVSHEDPEVKFNWYVDGVEVHNAKTKPREEQYASTYRVVSVLTVLHQDWLNGKEYKCKVSNKALPAPIEKTISKAKGQPREPQVYTLPPSRCELTKNQVSLSCAVKGFYPSDIAVEWESNGQPENNYKTTPPVLDSDGSFFLVSKLTVDKSRWQQGNVFSCSVMHEALHNHYTQKSLSLSPDYKDDDDK EPKSSDKTHTCPPCPAPELLGGPSVFLFPPKPKDTLMISRTPEVTCVVVDVSHEDPEVKFNWYVDGVEVHNAKTKPREEQYNSTYRVVSVLTVLHQDWLNGKEYKCKVSNKALPAPIEKTISKAKGQPREPQVCTLPPSRDELTKNQVSLWCLVKGFYPSDIAVEWESNGQPENNYKTTPPVLDSDGSFFLYSKLTVDKSRWQQGNVFSCSVMHEALHNRYTQKSLSLSP light: DIVMTQSPLSLPVTPGEPASISCRSSQSLVHSNRNTYLHWYQQKPGQAPRLLIYKVSNRFSGVPDRFSGSGSGTDFTLKISRVEAEDVGVYYCGQGTQVPYTFGQGTKLEIKRTVAAPSVFIFPPSDEQLKSGTASVVCLLNNFYPREAKVQWKVDNALQSGNSQESVTEQDSKDSTYSLSSTLTLSKADYEKHKVYACEVTHQGLSSPVTKSFNRGEC
5.56 | CE115HA000 D101R (antibody, human IgG1, kappa, L234A L235A, N297A, name in Kabat numbering, one-arm antibody) heavy: QVQLVESGGGVVQPGRSLRLSCAASGFTFSNAWMHWVRQAPGKGLEWVAQIKAKSNNYATYYAESVKGRFTISRDDSKNSLYLQMNSLKTEDTAVYYCRYVHYGAYYGVRAWGQGTTVTVSSASTKGPSVFPLAPSSKSTSGGTAALGCLVKDYFPEPVTVSWNSGALTSGVHTFPAVLQSSGLYSLSSVVTVPSSSLGTQTYICNVNHKPSNTKVDKKVEPKSCDKTHTCPPCPAPEAAGGPSVFLFPPKPKDTLMISRTPEVTCVVVDVSHEDPEVKFNWYVDGVEVHNAKTKPREEQYASTYRVVSVLTVLHQDWLNGKEYKCKVSNKALPAPIEKTISKAKGQPREPQVYTLPPSRCELTKNQVSLSCAVKGFYPSDIAVEWESNGQPENNYKTTPPVLDSDGSFFLVSKLTVDKSRWQQGNVFSCSVMHEALHNHYTQKSLSLSPDYKDDDDK EPKSSDKTHTCPPCPAPELLGGPSVFLFPPKPKDTLMISRTPEVTCVVVDVSHEDPEVKFNWYVDGVEVHNAKTKPREEQYNSTYRVVSVLTVLHQDWLNGKEYKCKVSNKALPAPIEKTISKAKGQPREPQVCTLPPSRDELTKNQVSLWCLVKGFYPSDIAVEWESNGQPENNYKTTPPVLDSDGSFFLYSKLTVDKSRWQQGNVFSCSVMHEALHNRYTQKSLSLSP light: DIVMTQSPLSLPVTPGEPASISCRSSQSLVHSNRNTYLHWYQQKPGQAPRLLIYKVSNRFSGVPDRFSGSGSGTDFTLKISRVEAEDVGVYYCGQGTQVPYTFGQGTKLEIKRTVAAPSVFIFPPSDEQLKSGTASVVCLLNNFYPREAKVQWKVDNALQSGNSQESVTEQDSKDSTYSLSSTLTLSKADYEKHKVYACEVTHQGLSSPVTKSFNRGEC
2.28 | CE115HA000 D101N (antibody, human IgG1, kappa, L234A L235A, N297A, name in Kabat numbering, one-arm antibody) heavy: QVQLVESGGGVVQPGRSLRLSCAASGFTFSNAWMHWVRQAPGKGLEWVAQIKAKSNNYATYYAESVKGRFTISRDDSKNSLYLQMNSLKTEDTAVYYCRYVHYGAYYGVNAWGQGTTVTVSSASTKGPSVFPLAPSSKSTSGGTAALGCLVKDYFPEPVTVSWNSGALTSGVHTFPAVLQSSGLYSLSSVVTVPSSSLGTQTYICNVNHKPSNTKVDKKVEPKSCDKTHTCPPCPAPEAAGGPSVFLFPPKPKDTLMISRTPEVTCVVVDVSHEDPEVKFNWYVDGVEVHNAKTKPREEQYASTYRVVSVLTVLHQDWLNGKEYKCKVSNKALPAPIEKTISKAKGQPREPQVYTLPPSRCELTKNQVSLSCAVKGFYPSDIAVEWESNGQPENNYKTTPPVLDSDGSFFLVSKLTVDKSRWQQGNVFSCSVMHEALHNHYTQKSLSLSPDYKDDDDK EPKSSDKTHTCPPCPAPELLGGPSVFLFPPKPKDTLMISRTPEVTCVVVDVSHEDPEVKFNWYVDGVEVHNAKTKPREEQYNSTYRVVSVLTVLHQDWLNGKEYKCKVSNKALPAPIEKTISKAKGQPREPQVCTLPPSRDELTKNQVSLWCLVKGFYPSDIAVEWESNGQPENNYKTTPPVLDSDGSFFLYSKLTVDKSRWQQGNVFSCSVMHEALHNRYTQKSLSLSP light: DIVMTQSPLSLPVTPGEPASISCRSSQSLVHSNRNTYLHWYQQKPGQAPRLLIYKVSNRFSGVPDRFSGSGSGTDFTLKISRVEAEDVGVYYCGQGTQVPYTFGQGTKLEIKRTVAAPSVFIFPPSDEQLKSGTASVVCLLNNFYPREAKVQWKVDNALQSGNSQESVTEQDSKDSTYSLSSTLTLSKADYEKHKVYACEVTHQGLSSPVTKSFNRGEC
43.4 | CE115HA000 D101P (antibody, human IgG1, kappa, L234A L235A, N297A, name in Kabat numbering, one-arm antibody) heavy: QVQLVESGGGVVQPGRSLRLSCAASGFTFSNAWMHWVRQAPGKGLEWVAQIKAKSNNYATYYAESVKGRFTISRDDSKNSLYLQMNSLKTEDTAVYYCRYVHYGAYYGVPAWGQGTTVTVSSASTKGPSVFPLAPSSKSTSGGTAALGCLVKDYFPEPVTVSWNSGALTSGVHTFPAVLQSSGLYSLSSVVTVPSSSLGTQTYICNVNHKPSNTKVDKKVEPKSCDKTHTCPPCPAPEAAGGPSVFLFPPKPKDTLMISRTPEVTCVVVDVSHEDPEVKFNWYVDGVEVHNAKTKPREEQYASTYRVVSVLTVLHQDWLNGKEYKCKVSNKALPAPIEKTISKAKGQPREPQVYTLPPSRCELTKNQVSLSCAVKGFYPSDIAVEWESNGQPENNYKTTPPVLDSDGSFFLVSKLTVDKSRWQQGNVFSCSVMHEALHNHYTQKSLSLSPDYKDDDDK EPKSSDKTHTCPPCPAPELLGGPSVFLFPPKPKDTLMISRTPEVTCVVVDVSHEDPEVKFNWYVDGVEVHNAKTKPREEQYNSTYRVVSVLTVLHQDWLNGKEYKCKVSNKALPAPIEKTISKAKGQPREPQVCTLPPSRDELTKNQVSLWCLVKGFYPSDIAVEWESNGQPENNYKTTPPVLDSDGSFFLYSKLTVDKSRWQQGNVFSCSVMHEALHNRYTQKSLSLSP light: DIVMTQSPLSLPVTPGEPASISCRSSQSLVHSNRNTYLHWYQQKPGQAPRLLIYKVSNRFSGVPDRFSGSGSGTDFTLKISRVEAEDVGVYYCGQGTQVPYTFGQGTKLEIKRTVAAPSVFIFPPSDEQLKSGTASVVCLLNNFYPREAKVQWKVDNALQSGNSQESVTEQDSKDSTYSLSSTLTLSKADYEKHKVYACEVTHQGLSSPVTKSFNRGEC

From patent publication US20210388087A1 (Chugai, published 2021)
